Experimental data taken from publication PMC4051761.

Key:
[1] = biological target: Gag.FP: unprocessed HIV-1 Gag polyprotein carrying eCFP or eYFP between MA and CA, in immature HIV^eCFP/eYFP particles (HIV-1 NL4-3); experiment: FRET or BRET; stopped-flow; dual-labeled particles mixed with 0.05% TX-100 in PBS at 25°C, excitation 436 nm, long pass filter 515 nm; five to six traces averaged; single or double exponential fits of the FRET decay
[2] = biological target: MA-CA.FP: uncleaved MA-CA Gag derivative carrying eCFP or eYFP, in HIV^eCFP/eYFP particles of the MA-CA cleavage site variant (HIV-1 NL4-3); experiment: as above
[3] = biological target: MA-SP1.FP: uncleaved MA-CA-SP1 Gag derivative carrying eCFP or eYFP, in HIV^eCFP/eYFP particles of the MA-SP1 cleavage site variant (HIV-1 NL4-3); experiment: as above
[4] = biological target: MA-SP1.FP: uncleaved MA-CA-SP1 Gag derivative carrying eCFP or eYFP, in HIV^eCFP/eYFP particles of the MA-SP1 cleavage site variant (HIV-1 NL4-3); experiment: FRET or BRET; cuvette-based; dual-labeled particles in PBS at 25°C, 0.05% TX-100 added at t = 0 to strip the lipid envelope; emission at 528 nm (excitation 433 nm) followed at 1 s resolution, or spectra after 15 min; normalized to the signal before detergent
[5] = biological target: MA.FP: HIV-1 matrix protein (MA) carrying eCFP or eYFP, in mature HIV^eCFP/eYFP particles (HIV-1 NL4-3); experiment: FRET or BRET; stopped-flow; dual-labeled particles mixed with 0.05% TX-100 in PBS at 25°C, excitation 436 nm, long pass filter 515 nm; five to six traces averaged; single or double exponential fits of the FRET decay

Gag.FP: unprocessed HIV-1 Gag polyprotein carrying eCFP or eYFP between MA and CA, in immature HIV^eCFP/eYFP particles (natural protein)
k1, rate constant of FRET decay (single exponential) [1]: 0.018 s⁻¹

MA-CA.FP: uncleaved MA-CA Gag derivative carrying eCFP or eYFP, in HIV^eCFP/eYFP particles of the MA-CA cleavage site variant (domain or fragment)
k1, rate constant of FRET decay (fast phase, double exponential) [2]: 0.127 s⁻¹ | k2, rate constant of FRET decay (slow phase, double exponential) [2]: 0.0082 s⁻¹

MA-SP1.FP: uncleaved MA-CA-SP1 Gag derivative carrying eCFP or eYFP, in HIV^eCFP/eYFP particles of the MA-SP1 cleavage site variant (domain or fragment)
k1, rate constant of FRET decay (fast phase, double exponential) [3]: 0.129 s⁻¹ | k2, rate constant of FRET decay (slow phase, double exponential) [3]: 0.0078 s⁻¹ | plateau of the FRET signal after detergent, % of the initial value [4]: 75%

MA.FP: HIV-1 matrix protein (MA) carrying eCFP or eYFP, in mature HIV^eCFP/eYFP particles (natural protein)
k1, rate constant of FRET decay (single exponential) [5]: 0.099 s⁻¹
